Experiments:
[1] = target: human α1β1 integrin (human) (UniProt P56199); test: inhibition of adhesion of α1K562 cells to immobilised collagen IV
α6β1 integrin = α6β1 integrin (UniProt P23229); test: inhibition of adhesion of α6K562 cells to laminin
Chain of α6β1 integrin (P23229 24-1130, chain 1 of 2): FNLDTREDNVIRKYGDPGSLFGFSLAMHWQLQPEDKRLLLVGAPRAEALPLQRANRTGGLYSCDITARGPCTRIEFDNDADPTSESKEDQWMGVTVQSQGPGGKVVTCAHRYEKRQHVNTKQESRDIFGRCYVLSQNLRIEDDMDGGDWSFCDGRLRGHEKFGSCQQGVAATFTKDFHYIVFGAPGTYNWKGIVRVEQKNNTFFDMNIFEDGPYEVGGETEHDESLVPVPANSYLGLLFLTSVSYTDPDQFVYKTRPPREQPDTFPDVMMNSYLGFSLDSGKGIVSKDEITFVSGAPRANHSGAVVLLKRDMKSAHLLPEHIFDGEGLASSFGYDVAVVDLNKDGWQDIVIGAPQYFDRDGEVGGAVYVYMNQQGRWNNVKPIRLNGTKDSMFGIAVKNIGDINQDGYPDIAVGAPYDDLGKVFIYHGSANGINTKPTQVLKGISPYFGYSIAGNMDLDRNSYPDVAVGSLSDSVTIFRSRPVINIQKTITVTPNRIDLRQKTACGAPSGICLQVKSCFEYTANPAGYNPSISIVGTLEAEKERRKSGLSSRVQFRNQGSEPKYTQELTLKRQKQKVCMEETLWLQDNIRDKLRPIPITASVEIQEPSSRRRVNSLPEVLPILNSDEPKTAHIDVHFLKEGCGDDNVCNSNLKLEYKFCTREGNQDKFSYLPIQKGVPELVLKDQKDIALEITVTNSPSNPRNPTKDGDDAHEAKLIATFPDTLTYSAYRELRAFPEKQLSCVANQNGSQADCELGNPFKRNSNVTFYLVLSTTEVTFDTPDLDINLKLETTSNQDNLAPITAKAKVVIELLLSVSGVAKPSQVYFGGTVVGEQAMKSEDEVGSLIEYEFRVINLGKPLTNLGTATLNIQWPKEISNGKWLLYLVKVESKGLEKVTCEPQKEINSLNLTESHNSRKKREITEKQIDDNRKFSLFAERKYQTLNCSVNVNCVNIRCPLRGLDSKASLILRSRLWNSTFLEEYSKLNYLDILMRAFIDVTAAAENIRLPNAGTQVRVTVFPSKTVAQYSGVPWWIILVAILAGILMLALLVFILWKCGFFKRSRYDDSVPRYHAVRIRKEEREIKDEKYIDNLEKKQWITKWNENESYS
Chain of α6β1 integrin (P05556 21-798, chain 2 of 2, further chain): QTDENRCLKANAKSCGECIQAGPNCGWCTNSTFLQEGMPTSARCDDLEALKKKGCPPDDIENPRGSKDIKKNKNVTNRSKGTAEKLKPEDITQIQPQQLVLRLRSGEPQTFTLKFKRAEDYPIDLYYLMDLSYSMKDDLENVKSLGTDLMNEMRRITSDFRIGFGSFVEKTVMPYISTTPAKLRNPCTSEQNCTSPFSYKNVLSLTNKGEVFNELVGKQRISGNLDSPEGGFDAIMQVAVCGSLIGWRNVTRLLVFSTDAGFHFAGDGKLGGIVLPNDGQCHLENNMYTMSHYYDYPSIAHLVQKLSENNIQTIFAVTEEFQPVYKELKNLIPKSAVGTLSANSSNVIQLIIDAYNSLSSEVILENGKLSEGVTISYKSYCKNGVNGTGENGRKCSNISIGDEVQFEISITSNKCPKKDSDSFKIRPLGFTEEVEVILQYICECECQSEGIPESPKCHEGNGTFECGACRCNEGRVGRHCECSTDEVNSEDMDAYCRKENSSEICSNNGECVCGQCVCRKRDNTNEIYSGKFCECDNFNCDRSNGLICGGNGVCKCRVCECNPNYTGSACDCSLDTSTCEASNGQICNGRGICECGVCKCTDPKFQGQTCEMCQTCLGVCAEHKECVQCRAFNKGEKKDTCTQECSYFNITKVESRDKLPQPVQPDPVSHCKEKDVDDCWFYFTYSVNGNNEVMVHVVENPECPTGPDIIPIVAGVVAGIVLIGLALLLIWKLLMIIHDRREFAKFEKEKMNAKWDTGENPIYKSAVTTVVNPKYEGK

Chain of human α1β1 integrin (human) (P56199 29-1179, chain 1 of 2): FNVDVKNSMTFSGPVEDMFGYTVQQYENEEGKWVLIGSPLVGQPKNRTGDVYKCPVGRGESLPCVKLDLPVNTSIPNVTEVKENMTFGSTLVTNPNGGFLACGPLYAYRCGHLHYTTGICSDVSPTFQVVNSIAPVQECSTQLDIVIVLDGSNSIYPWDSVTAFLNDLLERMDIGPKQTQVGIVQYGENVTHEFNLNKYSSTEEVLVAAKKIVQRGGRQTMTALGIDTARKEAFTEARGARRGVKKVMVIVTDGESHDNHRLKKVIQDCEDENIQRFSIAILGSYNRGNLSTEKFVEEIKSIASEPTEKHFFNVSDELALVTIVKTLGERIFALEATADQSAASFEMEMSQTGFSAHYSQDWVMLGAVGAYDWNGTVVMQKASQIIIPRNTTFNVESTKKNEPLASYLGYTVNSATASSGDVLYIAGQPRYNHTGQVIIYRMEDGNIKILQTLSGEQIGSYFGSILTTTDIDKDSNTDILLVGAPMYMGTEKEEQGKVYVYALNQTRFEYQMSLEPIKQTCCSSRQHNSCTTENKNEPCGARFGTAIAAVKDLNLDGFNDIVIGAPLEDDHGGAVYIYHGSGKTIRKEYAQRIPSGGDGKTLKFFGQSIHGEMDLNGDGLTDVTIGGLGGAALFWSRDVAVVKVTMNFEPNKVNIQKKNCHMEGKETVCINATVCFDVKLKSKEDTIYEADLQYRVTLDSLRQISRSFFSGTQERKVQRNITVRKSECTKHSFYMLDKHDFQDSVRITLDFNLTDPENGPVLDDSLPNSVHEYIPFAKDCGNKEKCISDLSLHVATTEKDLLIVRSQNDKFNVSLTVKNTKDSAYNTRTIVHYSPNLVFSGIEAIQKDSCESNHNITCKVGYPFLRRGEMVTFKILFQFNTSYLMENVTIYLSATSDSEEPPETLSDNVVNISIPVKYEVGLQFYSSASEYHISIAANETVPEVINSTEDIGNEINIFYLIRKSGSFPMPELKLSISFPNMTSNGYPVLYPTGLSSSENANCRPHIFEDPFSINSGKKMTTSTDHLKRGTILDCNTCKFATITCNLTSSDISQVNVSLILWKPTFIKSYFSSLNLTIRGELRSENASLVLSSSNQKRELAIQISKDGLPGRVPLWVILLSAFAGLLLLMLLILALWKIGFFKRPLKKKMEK
Chain of human α1β1 integrin (human) (P05556 21-798, chain 2 of 2, further chain): as the sequence (P05556 21-798, chain 2 of 2, further chain) above

Substance	IC50 [1]	IC50 (α6β1 integrin)
Ethylpyridylated obtustatin (EP-obtustatin) (peptide)	30 µM	–
echistatin (from UniProt P17347 131-179) (peptide)	–	> 10 µM
eristostatin (from UniProt P0C6S4 1-49) (peptide)	–	> 10 µM
obtustatin (peptide)	–	> 10 µM
viperisrastatin (peptide)	–	> 10 µM

From patent US20030186334A1, “KTS-disintegrins” (Temple University - Of the Commonwealth System of Higher …, priority 2001, published 2003)
